Data reported in paper PMC5042579 (Molecular Biology of the Cell, 2016).
One block for each binder: values may come before it.

Assays:
[1] = biological target: T1, tau (human 1N4R-tau isoform, 412 amino acids) (human, UniProt P10636-7 1-412); experiment: TIRF microscopy of reconstituted dynamic microtubules
[2] = biological target: T1, tau (human 1N4R-tau isoform, 412 amino …); experiment: pull-down
[3] = biological target: T1, tau (human 1N4R-tau isoform, 412 amino …); experiment: other fluorescence titration

binding result [1]: binds
B1: GFP-EB1-Δ-tail (GFP-EB1 lacking the last 20 amino acid residues) (domain or fragment)
chain: MAVNVYSTSVTSDNLSRHDMLAWINESLQLNLTKIEQLCSGAAYCQFMDMLFPGSIALKKVKFQAKLEHEYIQNFKILQAGFKRMGVDKIIPVDKLVKGKFQDNFEFVQWFKKFFDANYDGKDYDPVAARQGQETAVAPSLVAPALNKPKKPLTSSSAAPQRPISTQRTAAAPKAGPGVVRKNPGVGNGDDEAAELMQQVNVLKLTVEDLEKERDFYFGKLRNIELICQENEGENDPVLQRIVDILYA

binding result [2]: binds
B2: biotinylated EB1 (mouse end-binding protein 1) (natural protein)
chain: MAVNVYSTSVTSDNLSRHDMLAWINESLQLNLTKIEQLCSGAAYCQFMDMLFPGSIALKKVKFQAKLEHEYIQNFKILQAGFKRMGVDKIIPVDKLVKGKFQDNFEFVQWFKKFFDANYDGKEYDPVAARQGQETAVAPSLVAPALSKPKKPLGSSTAAPQRPIATQRTTAAPKAGPGMVRKNPGVGNGDDEAAELMQQVKVLKLTVEDLEKERDFYFGKLRNIELICQENEGENDPVLQRIVDILYATDEGFVIPDEGGPQEEQEEY
modifications: biotin (EZ-Link NHS-Chromogenic Biotinylation Kit)

Kd [3]: 1700 ± 1100 nM
B3: EB1 (mouse end-binding protein 1), not labelled (natural protein)
chain: B2 chain
